Residue numbers refer to the chain shown, from its start. Values belong to the binder of their own block, whether it stands above or below them.
Experiments:
KRS fragment (1-207aa) [1] = biological target: T1, KRS fragment (1-207aa) (human, UniProt Q15046 1-207); assay: SPR (Biacore T200), antibody immobilised on CM5, KRS 1-207 flowed at 4.8 to 1250 nM
T1 construct: range 1-207; also called purified protein of the KRS fragment (1-207aa); KRS protein

KRS fragment (1-207aa) [2] = biological target: T1, KRS fragment (1-207aa); assay: SPR, Biacore T200, antibody amine-coupled on CM5, KRS (1-207aa) as analyte, 25 C
KRS epitope peptide F4 = biological target: T2, KRS epitope peptide F4; assay: SPR, Biacore T200, antibody on the chip, peptide F4 as analyte
T2 peptide: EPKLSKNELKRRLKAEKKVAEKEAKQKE
Description: The SPR experiment was performed using a Biacore T200 (GE Healthcare) equipped with a Series S sensor chip CM5 (GE Healthcare) at 25° C. After the antibody was immobilized on the chip using an amine coupling kit (GE Healthcare), the antigen was diluted 4 times in PBS solution in the range of 4.8 nM-1250 nM and flowed for 60 seconds. Thereafter, PBS was flowed for 300 seconds. The obtained data was analyzed with Biacore T200 Evaluation software v2.0 (GE Healthcare).
After that, PBS was flowed for 2400 seconds. The obtained data was analyzed with Biacore T200 Evaluation software v2.0 (GE Healthcare).

NRP1-b1b2 = biological target: T3, NRP1-b1b2 (UniProt O14786 273-586, limits assumed); assay: ELISA, coated antigen printed as NRP1
T3 construct: domain: b1b2; Negative control antigen
T3 sequence (looked up): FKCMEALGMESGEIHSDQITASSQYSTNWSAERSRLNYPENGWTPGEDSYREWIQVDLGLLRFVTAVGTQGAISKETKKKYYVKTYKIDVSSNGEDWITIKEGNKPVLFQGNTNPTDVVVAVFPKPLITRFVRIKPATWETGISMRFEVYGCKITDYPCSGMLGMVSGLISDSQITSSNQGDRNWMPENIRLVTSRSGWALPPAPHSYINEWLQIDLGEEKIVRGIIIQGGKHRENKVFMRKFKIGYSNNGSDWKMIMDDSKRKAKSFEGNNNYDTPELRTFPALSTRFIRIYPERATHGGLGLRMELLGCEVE

T1 sequence (Q15046 1-207 limits assumed): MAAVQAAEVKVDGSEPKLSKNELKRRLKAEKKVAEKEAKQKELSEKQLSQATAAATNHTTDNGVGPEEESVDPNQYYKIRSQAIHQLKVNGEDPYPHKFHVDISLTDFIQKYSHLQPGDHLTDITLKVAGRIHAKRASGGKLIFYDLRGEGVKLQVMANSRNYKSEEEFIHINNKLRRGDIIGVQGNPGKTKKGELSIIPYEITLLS

koff (KRS fragment (1-207aa) [1]): 0.0206 s⁻¹
kon (KRS fragment (1-207aa) [1]): 664000 M⁻¹ s⁻¹
Kd (KRS fragment (1-207aa) [2]): 31 nM
B1: N3-1 antibody (IgG) (antibody)
chain 1: EVQLLESGGGLVQPGGSLRLSCAASGFTFSSYDMSWVRQAPGKGLEWVSAISYDNGNTYYADSVKGRFTISRDNSKNTLYLQMNSLRAEDTAVYYSARMALDFDYWGQGTLVTVSS
chain 2: QSVLTQPPSASGTPGQRVTISCTGSSSNIGSNYVTWYQQLPGTAPKLLIYDNSNRPSGVPDRFSGSKSGTSASLAISGLQSEDEADYYCASFSDELGAYVFGGGTKLTVL

Kd (KRS epitope peptide F4): 10.1 nM
koff (KRS epitope peptide F4): 0.0009 s⁻¹
kon (KRS epitope peptide F4): 89500 M⁻¹ s⁻¹
B2: N3-8-4 antibody (IgG) (antibody, V domains shown)
VH: B1 chain 1 with Y53P, D54Y, N55S, N57R, T58I, S96C, M99L
VL: QSVLTQPPSASGTPGQRVTISCTGSSSNIGSNYVTWYQQLPGTAPKLLIYDNSNRPSGVPDRFSGSKSGTSASLAISGLQSEDEADYYCSSFSDELGAYVFGGGTKLTVLG
notes: Whole IgG1, N3-8 derivative; also called N3-8-4 IgG

binding result (NRP1-b1b2): no binding (tested: 10 nM)
B3: N3-8 antibody (IgG) (antibody)
heavy: not shown
light: QSVLTQPPSASGTPGQRVTISCTGSSSNIGSNYVTWYQQLPGTAPKLLIYDNSNRPSGVPDRFSGSKSGTSASLAISGLQSEDEADYYCSSFSDELGAYVFGGGTKLTVLRTVAAPSVFIFPPSDEQLKSGTASVVCLLNNFYPREAKVQWKVDNALQSGNSQESVTEQDSKDSTYSLSSTLTLSKADYEKHKVYACEVTHQGLSSPVTKSFNRGEC
notes: Whole IgG1; also called N3-8 IgG

Source: patent US20220049016A1 (ZYMEDI, published 2022)
